Test results: patent US20250084169A1 (published 2025)
Numbering of substitutions follows the chain as printed. Read-outs that look alike come from different tables or passages of the source.

Key:
[1] = biological target: T1, recombinant cynomolgus monkey CD19 (cynomolgus monkey, UniProt A0A2K5W8L9 20-292)
T1 sequence: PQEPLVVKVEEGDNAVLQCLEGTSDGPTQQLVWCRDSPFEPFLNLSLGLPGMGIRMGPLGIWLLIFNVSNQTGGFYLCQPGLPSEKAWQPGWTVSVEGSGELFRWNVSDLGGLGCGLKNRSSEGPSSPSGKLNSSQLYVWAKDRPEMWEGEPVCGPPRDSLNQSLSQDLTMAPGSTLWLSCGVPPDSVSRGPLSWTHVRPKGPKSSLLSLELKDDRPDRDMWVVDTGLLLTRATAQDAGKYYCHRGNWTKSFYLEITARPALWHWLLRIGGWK

[2] = biological target: T2, recombinant cynomolgus monkey CD20 (cynomolgus monkey, UniProt M4ZHZ6 1-297)
T2 sequence: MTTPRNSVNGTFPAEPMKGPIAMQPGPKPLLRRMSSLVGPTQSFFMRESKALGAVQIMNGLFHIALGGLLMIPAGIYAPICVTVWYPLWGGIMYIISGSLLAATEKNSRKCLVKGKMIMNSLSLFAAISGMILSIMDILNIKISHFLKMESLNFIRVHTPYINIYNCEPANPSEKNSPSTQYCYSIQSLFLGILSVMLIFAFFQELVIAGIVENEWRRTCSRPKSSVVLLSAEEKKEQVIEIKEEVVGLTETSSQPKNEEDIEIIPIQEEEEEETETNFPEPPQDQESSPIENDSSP

[3] = biological target: T3, recombinant human Fc gamma RIIb/c (CD32b/c) (human, UniProt P31994 46-217)
T3 sequence (looked up): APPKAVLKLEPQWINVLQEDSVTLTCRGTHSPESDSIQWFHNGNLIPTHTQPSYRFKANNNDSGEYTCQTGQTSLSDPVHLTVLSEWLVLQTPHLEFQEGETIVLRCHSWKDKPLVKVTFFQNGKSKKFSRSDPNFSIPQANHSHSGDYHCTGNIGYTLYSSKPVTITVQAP

[4] = biological target: T4, recombinant human Fc gamma RI (CD64) (human, UniProt P12314 16-288)
[5] = biological target: T5, recombinant human Fc gamma RIIa (CD32a) 131R (human, UniProt P12318 36-218)
T5 sequence (looked up): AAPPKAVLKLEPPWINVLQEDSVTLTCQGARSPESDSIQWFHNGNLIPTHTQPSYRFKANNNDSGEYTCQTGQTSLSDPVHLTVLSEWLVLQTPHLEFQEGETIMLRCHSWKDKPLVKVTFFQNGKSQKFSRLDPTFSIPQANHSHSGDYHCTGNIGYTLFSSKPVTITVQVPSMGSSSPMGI

[6] = biological target: T6, cynomolgus monkey Fc gamma receptor CD32a (cynomolgus monkey)
[7] = biological target: T7, cynomolgus monkey Fc gamma receptor CD16 (cynomolgus monkey, UniProt Q8SPW2 17-208)
[8] = biological target: T8, cynomolgus monkey Fc gamma receptor CD32b (cynomolgus monkey)
[9] = biological target: T6, cynomolgus monkey Fc gamma receptor …; remark: listed apart in the source
[10] = biological target: T7, cynomolgus monkey Fc gamma receptor CD16; remark: listed apart in the source
[11] = biological target: T8, cynomolgus monkey Fc gamma receptor …; remark: listed apart in the source
[12] = biological target: T9, recombinant human Fc gamma RIIIa (CD16a) 158V (human, UniProt P08637 17-208)
[13] = biological target: T10, recombinant human Fc gamma RIIIb (CD16b) (human, UniProt O75015 17-200)
[14] = biological target: T11, recombinant human Fc gamma RIIIa (CD16a) 158F (human, UniProt P08637 17-208)
[15] = biological target: T3, recombinant human Fc gamma RIIb/c …; remark: listed apart in the source
[16] = biological target: T4, recombinant human Fc gamma RI (CD64); remark: listed apart in the source
[17] = biological target: T5, recombinant human Fc gamma RIIa (CD32a) …; remark: listed apart in the source
[18] = biological target: T12, recombinant human Fc gamma RIIa (CD32a) 131H (human, UniProt P12318 36-218)
T12 sequence (looked up): T5 sequence (looked up) with R132H

[19] = biological target: T13, recombinant human full-length CD20 (human, UniProt P11836 1-297)
T13 sequence (looked up): T2 sequence with P25S, L31F, A51T, V157A, R217K, S226N, V227I, V239T

recombinant human CD19 = biological target: T14, recombinant human CD19 (human, UniProt P15391 20-291)
T14 sequence (looked up): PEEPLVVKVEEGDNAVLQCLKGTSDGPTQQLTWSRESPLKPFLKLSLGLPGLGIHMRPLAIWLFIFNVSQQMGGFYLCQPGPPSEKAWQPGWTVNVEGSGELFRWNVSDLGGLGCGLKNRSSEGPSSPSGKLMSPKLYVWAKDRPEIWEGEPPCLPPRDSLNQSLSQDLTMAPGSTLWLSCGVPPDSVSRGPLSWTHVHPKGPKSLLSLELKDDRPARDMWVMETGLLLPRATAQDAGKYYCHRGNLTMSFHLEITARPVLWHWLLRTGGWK

[20] = biological target: T9, recombinant human Fc gamma RIIIa …; remark: listed apart in the source
[21] = biological target: T10, recombinant human Fc gamma RIIIb (CD16b); remark: listed apart in the source
[22] = biological target: T11, recombinant human Fc gamma RIIIa …; remark: listed apart in the source

T4 sequence (P12314 16-288 limits assumed): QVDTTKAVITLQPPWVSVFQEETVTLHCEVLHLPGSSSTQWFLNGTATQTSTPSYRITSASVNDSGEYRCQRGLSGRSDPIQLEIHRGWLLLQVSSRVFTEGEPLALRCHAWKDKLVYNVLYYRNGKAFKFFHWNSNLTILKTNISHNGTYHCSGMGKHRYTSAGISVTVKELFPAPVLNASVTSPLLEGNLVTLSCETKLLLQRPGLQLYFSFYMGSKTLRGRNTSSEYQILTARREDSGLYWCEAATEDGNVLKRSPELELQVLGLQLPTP
T11 sequence (P08637 17-208 limits assumed): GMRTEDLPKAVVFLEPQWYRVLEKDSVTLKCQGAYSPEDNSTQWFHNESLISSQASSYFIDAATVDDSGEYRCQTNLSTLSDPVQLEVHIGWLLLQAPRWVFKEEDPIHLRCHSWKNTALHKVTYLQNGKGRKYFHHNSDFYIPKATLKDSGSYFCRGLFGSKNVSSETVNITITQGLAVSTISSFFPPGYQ
T7 sequence (Q8SPW2 17-208 limits assumed): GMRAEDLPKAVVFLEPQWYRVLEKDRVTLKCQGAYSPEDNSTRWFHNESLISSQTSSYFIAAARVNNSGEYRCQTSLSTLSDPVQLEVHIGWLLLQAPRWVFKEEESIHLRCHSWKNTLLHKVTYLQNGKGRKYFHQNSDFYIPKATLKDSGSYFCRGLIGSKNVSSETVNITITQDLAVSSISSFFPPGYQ
T10 sequence (O75015 17-200 limits assumed): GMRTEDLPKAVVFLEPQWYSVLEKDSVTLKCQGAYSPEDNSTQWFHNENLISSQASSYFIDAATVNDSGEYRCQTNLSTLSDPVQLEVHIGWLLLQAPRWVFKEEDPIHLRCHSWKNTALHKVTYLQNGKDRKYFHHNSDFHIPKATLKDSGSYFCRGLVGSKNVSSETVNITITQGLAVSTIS
T9 sequence (P08637 17-208 F176V limits assumed): as the sequence (P08637 17-208 limits assumed) above, with F160V counted along it

B1: HB2198 (bispecific antibody, human IgG1, kappa)
heavy 1: QVQLVQSGGGVVQPGRSLRLSCAASGVSLPDYGVSWVRKAPGKGLEWVAVIWGSETTYYNSALKSRFTISRDNSKNTLYLQMSSLRAEDTAVYYCAKHYYYGGSFAMDYWGQGTLVTVSSASTKGPSVFPLAPSSKSTSGGTAALGCLVKDYFPEPVTVSWNSGALTSGVHTFPAVLQSSGLYSLESVVTVPSSSLGTQTYICNVNHKPSNTKVDKKVEPKSCTDWSPYADQSIKVRISLKSALGDKAYEWNDNEMYLFRSSVAYAMRQYFLKVKNQMILFGEEDVRVANLKPRISFNFFVTAPKNVSDIIPRTEVEKAIRMSRSRINDAFRLNDNSLEFLGIQPTLGPPNQPPVSTSTSPTRSMAPGAVHLPQPVSTRDKTHTCPPCPAPELLGGPDVFLFPPKPKDTLMISRTPEVTCVVVDVSHEDPEVKFNWYVDGVEVHNAKTKPREEQYNSTYRVVSVLTVLHQDWLNGKEYKCKVSNKALPAPEEKTISKAKGQPREPQVCTLPPSRDELTKNQVSLSCAVKGFYPSDIAVEWESNGQPENNYKTTPPVLDSDGSFFLVSKLTVDKSRWQQGNVFSCSVMHEALHNRFTQKSLSLSPG
heavy 2: QIVLSQSPAILSASPGEKVTMTCRASSSVSYIHWFQKKPGSSPKPWIYATSNLASGVPVRFSGSGSGTSYSLTISRVEAEDAATYYCQQWTSNPPTFGGGTKVEIKSSASTKGPSVFPLAPSSKSTSGGTAALGCLVKDYFPEPVTVSWNSGALTSGVHTFPAVLQSSGLYSLKSVVTVPSSSLGTQTYICNVNHKPSNTKVDKKVEPKSCDKTHTCPPCPAPELLGGPDVFLFPPKPKDTLMISRTPEVTCVVVDVSHEDPEVKFNWYVDGVEVHNAKTKPREEQYNSTYRVVSVLTVLHQDWLNGKEYKCKVSNKALPAPEEKTISKAKGQPREPQVYTLPPCRDELTKNQVSLWCLVKGFYPSDIAVEWESNGQPENNYKTTPPVLDSDGSFFLYSKLTVDKSRWQQGNVFSCSVMHEALHNHYTQKSLSLSPG
light 1: DIQMTQSPSSLSASVGDRVTITCRASQDISKYLNWYQEKPGKAIKLLIYHTSRLHSGVPSRFSGSGSGTDFTLTISSLQPEDFATYYCQQGATLPYTFGPGTKLEIKRTVAAPSVFIFPPSDEQLKSGTASVKCLLNNFYPREAKVQWKVDNALQSGNSQESVTEQDSKDSTYSLSSTLTLSKADYEKHKVYACEVTHQGLSSPVTKSFNRGEC
light 2: QVQLQQPGAELVKPGASVKMSCKASGYTFTSYNMHWVKETPGRGLEWIGAIYPGNGDTSYNQKFKGKATLTADKSSSTAYMQLSSLTSEDSAVYYCARSTYYGGDWYFNVWGAGTLVTVSSASVAAPSVFIFPPSDEQLKSGTASVECLLNNFYPREAKVQWKVDNALQSGNSQESVTEQDSKDSTYSLSSTLTLSKADYEKHKVYACEVTHQGLSSPVTKSFNRGEC
- Kd [1]: 410 nM
- Kd [2]: 1.4 nM
- Kd [3]: 283 nM
- Kd [4]: < 0.02 nM
- Kd [5]: 128 nM
- Kd [6]: 305 nM
- Kd [7]: 1.76 nM
- Kd [8]: 218 nM
- Kd [9]: 4 nM
- Kd [10]: 2 nM
- Kd [11]: 3.4 nM
- Kd [12]: < 2 nM
- Kd [13]: < 2 nM
- Kd [14]: < 2 nM
- Kd [15]: 2.2 nM
- Kd [16]: < 0.02 nM
- Kd [17]: < 2 nM
- Kd [18]: < 2 nM
- Kd [19]: 0.2 nM
- Kd (recombinant human CD19): 1.5 nM
- Kd [20]: 4.19 nM
- Kd [21]: 95 nM
- Kd [22]: 15.7 nM

B2: B19c66AAC9 (antibody, human IgG1, kappa)
light: not shown
heavy: QVQLQQSGAELVRPGSSVKISCKASGYAFSSYWMNWVKQRPGQGLEWIGQIWPGDGDTNYNGKFKGKATLTADESSSTAYMQLSSLASEDSAVYFCARRETTTVGRYYYAMDYWGQGTTVTVSSASTKGPSVFPLAPSSKSTSGGTAALGCLVKDYFPEPVTVSWNSGALTSGVHTFPAVLQSSGLYSLSSVVTVPSSSLGTQTYICNVNHKPSNTKVDKKVEPKSCDKTHTCPPCPAPKRRGGPSVFLFPPKPKDTLMISRTPEVTCVVVDVSHEDPEVKFNWYVDGVEVHNAKTKPREEQYNSTYRVVSVLTVLHQDWLNGKEYKCKVSNKALPAPIEKTISKAKGQPREPQVYVLPPSRDELTKNQVSLLCLVKGFYPSDIAVEWESNGQPENNYLTWPPVLDSDGSFFLYSKLTVDKSRWQQGNVFSCSVMHEALHNHYTQKSLSLSPGK
chain: CPPCPAPEDEGGPSVFLFPPKPKDTLMISRTPEVTCVVVDVSHEDPEVKFNWYVDGVEVHNAKTKPREEQYNSTYRVVSVLTVLHQDWLNGKEYKCKVSNKALPAPIEKTISKAKGQPREPQVYVYPPSRDELTKNQVSLTCLVKGFYPSDIAVEWESNGQPENNYKTTPPVLDSDGSFALVSKLTVDKSRWQQGNVFSCSVMHEALHNHYTQKSLSLSPGK
- Kd (CD19 (target of Table 9)): 21 nM
